In patent US20040265963:

Test system: T1, Tkip (tyrosine kinase inhibitor peptide), WLVFFVIFYFFR
T1 sequence: WLVFFVIFYFFR

recombinant human Src
c-src tyrosine phosphorylation of a synthetic substrate peptide, in vitro kinase assay: Tkip at 50 µM failed to inhibit c-src phosphorylation of a protein substrate
